# Data: PMC4153549
# Test system: Grsf1-GST
# Assay: EMSA
# Settings: 10 mM HEPES-NaOH pH 7.9, 25 mM KCl, 1.5 mM EDTA, 4% glycerol, 0.25 mM DTT, 7.5 ug/uL heparin, 25 ng/uL yeast tRNA, 20 min at 30 C; native 5% PAGE
row,Substance,Kd
1,Use1 5'UTR WT A(G)4A probe,527 nM
2,Use1 dG4 probe (GGGG deleted from A(G)4A),4400 nM
